Reference: patent US7223834 (Bristol-Myers Squibb, dated 2007)
Ends that are not written are not given here. * marks the point of attachment. Biotin = O=C1N[C@H]2[C@H](CS[C@H]2CCCCC(=O)*)N1

Target: aggrecan degrading metallo protease (ADMP)
Experiment: cell-based or functional assay

B1: 30-mer inhibitor peptide (30-IP), QTVTWPDMELPLPRNITEGQARGSVILTVK-Biotin (peptide)
peptide: QTVTWPDMELPLPRNITEGQARGSVILTVK(Biotin)
modifications: not fully specified (N-terminus, C-terminus); printed as QTVTWPDMELPLPRNITEGQARGSVILTVK-Biotin
- IC50 for the inhibition of ADMP activity (microplate assay, cleavage of plate-bound 41-PS detected with BC-3 antibody): 11 µM
